Here are results for four molecules from patent publication US7972771B2, “Human brain carboxypeptidase B” (priority 1999, dated 2011).

For one data set, the target named is T1, 40 kDa protease (Homo sapiens, UniProt Q96IY4, A169T/A260V/E345D/I347T/R257S).
T1 construct: The 40 kDa proteolytic activity from fraction 19 was trapped in the column and recovered by elution; from tissue; host or cells: human hippocampus (autopsy brain)
T1 sequence (Q96IY4 23-360 isoform Q96IY4-2 A169T/R220S/A223V/E308D/I310T limits assumed): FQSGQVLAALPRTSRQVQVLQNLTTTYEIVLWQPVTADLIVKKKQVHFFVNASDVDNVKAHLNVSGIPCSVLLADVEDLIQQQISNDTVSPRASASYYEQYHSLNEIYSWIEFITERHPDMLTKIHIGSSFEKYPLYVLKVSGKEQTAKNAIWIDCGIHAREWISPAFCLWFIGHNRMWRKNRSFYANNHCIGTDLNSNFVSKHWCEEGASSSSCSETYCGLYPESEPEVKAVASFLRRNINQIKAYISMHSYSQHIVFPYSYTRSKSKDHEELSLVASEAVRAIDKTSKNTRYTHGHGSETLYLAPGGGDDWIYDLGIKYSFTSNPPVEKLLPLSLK
Kind of data set: Inhibition of natural brain APP degradation by the 40 kDa protease (Western blot, anti Aβ 1/14 or anti APP-CT antibody). Type of data set: biochemical. The settings on record: 37° C., 3 h.

The next data set concerns synthetic Aβ 1-42. Kind of data set: Carboxypeptidase digestion of synthetic Aβ 1-42 (Western blot). Type of data set: biochemical. Particulars: 0.01 pM to 0.2 pM enzyme, 0.1 pM substrate, 37° C., 16 hours. From the text:
(§1) In Western blot analysis, low-molecular weight peptides (in which several amino acids have shifted) can be confirmed by anti-Aβ-N-terminus antibody regarding the Aβ 1-40 substrate, however this cannot be confirmed by the anti-Aβ 40 fragment antibody. On the other hand, low-molecular weight peptides (in which several amino acids have shifted) can be confirmed by anti-Aβ-N-terminus antibody regarding the Aβ 1-42 substrate, however this cannot be confirmed by the anti-Aβ 42 fragment antibody.
(In general: Immunoblotting shows a protein as a band on a membrane.)

In the next data set the test system is synthetic Aβ 1-40. In words: Carboxypeptidase digestion of synthetic Aβ 1-40 (Western blot). Type of data set: biochemical. The settings on record: 0.01 pM to 0.2 pM enzyme, 0.1 pM substrate, 37° C., 16 hours.
Source text: as §1

A further data set concerns natural brain APP. In words: Proteolysis of natural brain APP by the isolated 40 kDa protease (Western blot). In kind it is biochemical, human. The settings on record: 0.1 pmol APP, 0.005 to 0.1 pmol protease, 37° C., 3 h, 1 mM Zn2+; generates 5.5 kDa fragment. How it is done: In the proteolytic analysis of the fractions for natural brain APP, approximately 0.1 pmol of natural brain APP prepared from human hippocampus was incubated at 37° C. for 3 h with each fraction (approximately 0.05 pmol) in the presence of 1 mM Zn^2+. To obtain proteolytic activities of interest, each reaction mixture was loaded in parallel wells for SDS-PAGE then subjected to Western blot analysis using anti Aβ 1/14 antibody (Calbiochem) as follows.
After separation of proteins by SDS-PAGE, proteins on the gel was blotted onto a Hybond C nitrocellulose membrane (Amersham Pharmacia, UK), after which non-specific binding was blocked by immersing the membrane in 5% bovine serum albumin for 1 h in Tris-buffered saline: 100 mM Tris-HCl (pH 7.5), 140 mM NaCl and 0.1% Tween 20. The membrane next was washed for 45 min with three changes of the above buffer then incubated at 4° C. for 16 h with the first antibody (anti Aβ 1/14 antibody) appropriately diluted with Tris-buffered saline. […] After the washing, signals were detected on X-ray film using an ECL chemiluminescence detection system (Amersham Pharmacia, UK).
The brain APP substrate (approximately 0.1 pmol) was treated with the 40 kDa protease (0.005 to 0.1 pmol) at 37° C. for 3 h in the presence of 1 mM Zn^2+ to analyze the isolated 40 kDa protease. The reaction product analyzed by Western blotting with anti Aβ 1/14 antibody (FIG. 2). […]

Data set [1] in a line: Stability of proteolytic activity of native-PAGE fraction. In kind it is physicochemical. From the text:
Of the 61 fractions analyzed, fraction 19 with a molecular mass of about 40 kDa and fraction 11 with a molecular mass of about 30 kDa had similar proteolytic activities. […] Fraction 19 with the 40 kDa molecular mass with proteolytic activity therefore was further purified.

On to “potato carboxypeptidase inhibitor: potato carboxypeptidase inhibitor (BioPur, Switzerland) (QQHADPICNKPCKTHDDCSGAWFCQACWNSARTCGPYVG)”, for which, in the data set with 40 kDa protease (1 mM potato carboxypeptidase inhibitor, 1 mM Zn2+, FIG. 2 lane 4), the “inhibition of brain APP degradation reaction” value is “completely inhibited”.

On to chondroitinase ABC, for which, on 40 kDa protease (APP pretreated with 0.5 pmol chondroitinase ABC, FIG. 2 lane 3), the “inhibition of brain APP degradation reaction” value is “almost completely inhibited”.

B1: 40 kDa protein: 40 kDa protease purified from human hippocampal homogenate; brain carboxypeptidase B (SEQ ID NO: 2) (protein, listed as Homo sapiens)
chain: MKLCSLAVLVPIVLFCEQHVFAFQSGQVLAALPRTSRQVQVLQNLTTTYEIVLWQPVTADLIVKKKQVHFFVNASDVDNVKAHLNVSGIPCSVLLADVEDLIQQQISNDTVSPRASASYYEQYHSLNEIYSWIEFITERHPDMLTKIHIGSSFEKYPLYVLKVSGKEQTAKNAIWIDCGIHAREWISPAFCLWFIGHNRMWRKNRSFYANNHCIGTDLNSNFVSKHWCEEGASSSSCSETYCGLYPESEPEVKAVASFLRRNINQIKAYISMHSYSQHIVFPYSYTRSKSKDHEELSLVASEAVRAIDKTSKNTRYTHGHGSETLYLAPGGGDDWIYDLGIKYSFTSNPPVEKLLPLSLK
Take B1: the “formation of low-molecular weight peptides from Aβ 1-42” value in the data set on synthetic Aβ 1-42 is “low-molecular weight peptides formed in a dose-dependent manner”. In addition, in the data set on synthetic Aβ 1-40, the “formation of low-molecular weight peptides from Aβ 1-40” value is “low-molecular weight peptides formed in a dose-dependent manner”. In addition, in the data set with natural brain APP, the “degradation of natural brain APP” value is “degraded natural brain APP”.

B2: fraction 11: native-PAGE fraction of about 30 kDa with proteolytic activity; mature form of HBCPB (protein)
chain: ASASYYEQYHSLNEIYSWIEFITERHPDMLTKIHIGSSFEKYPLYVLKVSGKEQTAKNAIWIDCGIHAREWISPAFCLWFIGHNRMWRKNRSFYANNHCIGTDLNRNFASKHWCEEGASSSSCSETYCGLYPESEPEVKAVASFLRRNINQIKAYISMHSYSQHIVFPYSYTRSKSKDHEELSLVASEAVRAIEKTSKNTRYTHGHGSETLYLAPGGGDDWIYDLGIKYSFTSNPPVEKLLPLSLK
Regarding B2, in data set [1] (2 w at −20° C.), the “activity after long-term storage” value was “lost its activity”. In data set [1] (room temperature), the “time to loss of proteolytic activity” value is on record as not above 30 min.
